System: growth of yeast strains under 51 stress conditions
Experiment: Growth assays in 51 stress conditions (Fig. 1E-F, S2D, S5B)
Format: cell-based, Saccharomyces cerevisiae
Design: Sla1 strains growth distance: scale not given here
Conditions: 51 stress conditions, Fig S5B
In short: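 Colony sizes at 74 h on 51 stress media (37 °C) were log2 transformed, corrected for plate effects, and averaged across two plates as per-plate medians (growth score). Strains arrayed in 12 replicates with WT border, grown first on YPD for two days at 30 °C.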

B1: WT¦WT¦WT (protein, UniProt P32790 1-1244, looked up)
Actin cytoskeleton-regulatory …: MTVFLGIYRAVYAYEPQTPEELAIQEDDLLYLLQKSDIDDWWTVKKRVIGSDSEEPVGLVPSTYIEEAPVLKKVRAIYDYEQVQNADEELTFHENDVFDVFDDKDADWLLVKSTVSNEFGFIPGNYVEPENGSTSKQEQAPAAAEAPAATPAAAPASAAVLPTNFLPPPQHNDRARMMQSKEDQAPDEDEEGPPPAMPARPTATTETTDATAAAVRSRTRLSYSDNDNDDEEDDYYYNSNSNNVGNHEYNTEYHSWNVTEIEGRKKKKAKLSIGNNKINFIPQKGTPHEWSIDKLVSYDNEKKHMFLEFVDPYRSLELHTGNTTTCEEIMNIIGEYKGASRDPGLREVEMASKSKKRGIVQYDFMAESQDELTIKSGDKVYILDDKKSKDWWMCQLVDSGKSGLVPAQFIEPVRDKKHTESTASGIIKSIKKNFTKSPSRSRSRSRSKSNANASWKDDELQNDVVGSAAGKRSRKSSLSSHKKNSSATKDFPNPKKSRLWVDRSGTFKVDAEFIGCAKGKIHLHKANGVKIAVAADKLSNEDLAYVEKITGFSLEKFKANDGSSSRGTDSRDSERERRRRLKEQEEKERDRRLKERELYELKKARELLDEERSRLQEKELPPIKPPRPTSTTSVPNTTSVPPAESSNNNNSSNKYDWFEFFLNCGVDVSNCQRYTINFDREQLTEDMMPDINNSMLRTLGLREGDIVRVMKHLDKKFGRENIASIPTNATGNMFSQPDGSLNVATSPETSLPQQLLPQTTSPAQTAPSTSAETDDAWTVKPASKSESNLLSKKSEFTGSMQDLLDLQPLEPKKAAASTPEPNLKDLEPVKTGGTTVPAAPVSSAPVSSAPAPLDPFKTGGNNILPLSTGFVMMPMITGGDMLPMQRTGGFVVPQTTFGMQSQVTGGILPVQKTGNGLIPISNTGGAMMPQTTFGAAATVLPLQKTGGGLIPIATTGGAQFPQTSFNVQGQQQLPTGSILPVQKTANGLISANTGVSMPTVQRTGGTMIPQTSFGVSQQLTGGAMMTQPQNTGSAMMPQTSFNAVPQITGGAMMPQTSFNALPQVTGGAMMPLQRTGGALNTFNTGGAMIPQTSFSSQAQNTGGFRPQSQFGLTLQKTGGIAPLNQNQFTGGAMNTLSTGGVLQQQQPQTMNTFNTGGVMQELQMMTTFNTGGAMQQPQMMNTFNTDGIMQQPQMMNTFNTGGAMQQPQQQALQNQPTGFGFGNGPQQSRQANIFNATASNPFGF
Sla1 strains growth distance (distance to ABP1¦WT¦WT): 32.7633 | Sla1 strains growth distance (distance to ABP1¦WT¦WT, listed as WT¦WT¦WT*): 32.7344 | Sla1 strains growth distance (distance to D¦D¦D): 13.1994 | Sla1 strains growth distance (distance to D¦D¦D, listed as WT¦WT¦WT*): 13.2336 | Sla1 strains growth distance (distance to D¦WT¦D): 4.481 | Sla1 strains growth distance (distance to D¦WT¦D, listed as WT¦WT¦WT*): 4.3276 | Sla1 strains growth distance (distance to D¦WT¦SH3-1): 9.537 | Sla1 strains growth distance (distance to D¦WT¦SH3-1, listed as WT¦WT¦WT*): 9.613 | Sla1 strains growth distance (distance to D¦WT¦SH3-2): 5.1186 | Sla1 strains growth distance (distance to D¦WT¦SH3-2, listed as WT¦WT¦WT*): 4.955 | Sla1 strains growth distance (distance to D¦WT¦WT): 4.59 | Sla1 strains growth distance (distance to D¦WT¦WT, listed as WT¦WT¦WT*): 4.434 | Sla1 strains growth distance (distance to SH3-2¦SH3-1¦WT): 7.002 | Sla1 strains growth distance (distance to SH3-2¦SH3-1¦WT, listed as WT¦WT¦WT*): 6.862 | Sla1 strains growth distance (distance to SH3-2¦WT¦D): 9.252 | Sla1 strains growth distance (distance to SH3-2¦WT¦D, listed as WT¦WT¦WT*): 9.12 | Sla1 strains growth distance (distance to SH3-2¦WT¦WT): 2.328 | Sla1 strains growth distance (distance to SH3-2¦WT¦WT, listed as WT¦WT¦WT*): 2.435 | Sla1 strains growth distance (distance to SH3-3¦SH3-1¦D): 3.781 | Sla1 strains growth distance (distance to SH3-3¦SH3-1¦D, listed as WT¦WT¦WT*): 3.648 | Sla1 strains growth distance (distance to SH3-3¦SH3-1¦SH3-2): 4.4511 | Sla1 strains growth distance (distance to SH3-3¦SH3-1¦SH3-2, listed as WT¦WT¦WT*): 4.2977 | Sla1 strains growth distance (distance to SH3-3¦WT¦D): 11.8089 | Sla1 strains growth distance (distance to SH3-3¦WT¦D, listed as WT¦WT¦WT*): 11.8591 | Sla1 strains growth distance (distance to SH3-3¦WT¦SH3-1): 11.5081 | Sla1 strains growth distance (distance to SH3-3¦WT¦SH3-1, listed as WT¦WT¦WT*): 11.5693 | Sla1 strains growth distance (distance to SH3-3¦WT¦WT): 11.7278 | Sla1 strains growth distance (distance to SH3-3¦WT¦WT, listed as WT¦WT¦WT*): 11.7806 | Sla1 strains growth distance (distance to WT*¦WT¦WT): 0.6236 | Sla1 strains growth distance (distance to WT*¦WT¦WT, listed as WT¦WT¦WT*): 0.5854 | Sla1 strains growth distance (distance to WT¦ABP1¦WT): 11.3779 | Sla1 strains growth distance (distance to WT¦ABP1¦WT, listed as WT¦WT¦WT*): 11.4192 | Sla1 strains growth distance (distance to WT¦D¦D): 4.458 | Sla1 strains growth distance (distance to WT¦D¦D, listed as WT¦WT¦WT*): 4.315 | Sla1 strains growth distance (distance to WT¦D¦SH3-2): 5.097 | Sla1 strains growth distance (distance to WT¦D¦SH3-2, listed as WT¦WT¦WT*): 4.943 | Sla1 strains growth distance (distance to WT¦D¦WT): 5.311 | Sla1 strains growth distance (distance to WT¦D¦WT, listed as WT¦WT¦WT*): 5.149 | Sla1 strains growth distance (distance to WT¦SH3-1¦D): 0.4704 | Sla1 strains growth distance (distance to WT¦SH3-1¦D, listed as WT¦WT¦WT*): 0.4379 | Sla1 strains growth distance (distance to WT¦SH3-1¦WT): 0.4878 | Sla1 strains growth distance (distance to WT¦SH3-1¦WT, listed as WT¦WT¦WT*): 0.5418 | Sla1 strains growth distance (distance to WT¦SH3-3¦D): 5.1001 | Sla1 strains growth distance (distance to WT¦SH3-3¦D, listed as WT¦WT¦WT*): 4.947 | Sla1 strains growth distance (distance to WT¦SH3-3¦SH3-2): 5.331 | Sla1 strains growth distance (distance to WT¦SH3-3¦SH3-2, listed as WT¦WT¦WT*): 5.179 | Sla1 strains growth distance (distance to WT¦SH3-3¦WT): 4.703 | Sla1 strains growth distance (distance to WT¦SH3-3¦WT, listed as WT¦WT¦WT*): 4.556 | Sla1 strains growth distance (distance to WT¦WT*¦WT): 0.917 | Sla1 strains growth distance (distance to WT¦WT*¦WT, listed as WT¦WT¦WT*): 0.7508 | Sla1 strains growth distance (distance to WT¦WT¦ABP1): 1.932 | Sla1 strains growth distance (distance to WT¦WT¦ABP1, listed as WT¦WT¦WT*): 1.926 | Sla1 strains growth distance (distance to WT¦WT¦D): 0.5681 | Sla1 strains growth distance (distance to WT¦WT¦D, listed as WT¦WT¦WT*): 0.4359 | Sla1 strains growth distance (distance to WT¦WT¦SH3-1): 0.5772 | Sla1 strains growth distance (distance to WT¦WT¦SH3-1, listed as WT¦WT¦WT*): 0.4107 | Sla1 strains growth distance (distance to WT¦WT¦SH3-2): 0.55 | Sla1 strains growth distance (distance to WT¦WT¦SH3-2, listed as WT¦WT¦WT*): 0.3776 | Sla1 strains growth distance (distance to WT¦WT¦WT*): 0.496 | Sla1 strains growth distance (distance to WT¦WT¦WT*, listed as WT¦WT¦WT*): 0 | Sla1 strains growth distance (distance to WT¦WT¦WT): 0 | Sla1 strains growth distance (distance to WT¦WT¦WT, listed as WT¦WT¦WT*): 0.496
